This note sets out measurements from paper PMC4507011.

Assay [1] addresses dehydrogenase domain (DH) of MtCDH variant M309A (Myriococcum thermophilum).
The target of assay [2] is dehydrogenase domain (DH) of MtCDH variant M309R (Myriococcum thermophilum).
The target of assay [3] is dehydrogenase domain (DH) of MtCDH variant N292S (Myriococcum thermophilum).
For assay [4], the target named is dehydrogenase domain (DH) of MtCDH variant N700S (Myriococcum thermophilum).
Assay [5] concerns the target dehydrogenase domain (DH) of MtCDH variant R698S (Myriococcum thermophilum).
Assay [6] concerns the target dehydrogenase domain (DH) of MtCDH variant S298Q (Myriococcum thermophilum).
In assay [7] the target is dehydrogenase domain (DH) of MtCDH variant W295A (Myriococcum thermophilum).
Assay [8] addresses dehydrogenase domain (DH) of MtCDH variant Y549F (Myriococcum thermophilum).
For assay [9], the target named is dehydrogenase domain (DH) of MtCDH variant Y619Q (Myriococcum thermophilum).
The target of assay [10] is dehydrogenase domain (DH) of Myriococcum thermophilum cellobiose dehydrogenase, wild type (Myriococcum thermophilum).
The target in assay [11] is T1, Neurospora crassa lytic polysaccharide monooxygenase NcLPMO9F (Neurospora crassa) (UniProt Q1K4Q1).
T1 sequence (chain, non-glycosylated; N-terminal histidine not methylated): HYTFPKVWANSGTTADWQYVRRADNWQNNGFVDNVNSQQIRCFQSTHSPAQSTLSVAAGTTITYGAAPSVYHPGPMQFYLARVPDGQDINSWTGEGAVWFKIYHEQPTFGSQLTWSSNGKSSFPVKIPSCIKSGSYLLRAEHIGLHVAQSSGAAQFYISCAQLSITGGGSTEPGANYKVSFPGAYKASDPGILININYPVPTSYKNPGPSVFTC

Assay [12] has as its target T1, Neurospora crassa lytic polysaccharide monooxygenase NcLPMO9F (Neurospora crassa). The source holds these as a separate data set.

In turn, “cytochrome domain (CYT) of Myriococcum thermophilum cellobiose dehydrogenase (domain or fragment)” came in with a haem b reduction rate kobs (interdomain electron transfer) of 5 μM full-length MtCDH M309A with 25 mM cellobiose, stopped flow at 563 nm, 30 °C, pH 5.0 in [1] of 0.056 s⁻¹. In addition, the haem b reduction rate kobs (interdomain electron transfer) of 5 μM full-length MtCDH M309R with 25 mM cellobiose, stopped flow at 563 nm, 30 °C, pH 5.0 in assay [2] stood at 0.088 s⁻¹. Further, the haem b reduction rate kobs (interdomain electron transfer) of 5 μM full-length MtCDH N292S with 25 mM cellobiose, stopped flow at 563 nm, 30 °C, pH 5.0 in assay [3] amounted to 0.95 s⁻¹. The molecule further showed a haem b reduction rate kobs (interdomain electron transfer) of 5 μM full-length MtCDH N700S with 25 mM cellobiose, stopped flow at 563 nm, 30 °C, pH 5.0 in assay [4] of 1.37 s⁻¹. This molecule yielded a haem b reduction rate kobs (interdomain electron transfer) of 5 μM full-length MtCDH R698S with 25 mM cellobiose, stopped flow at 563 nm, 30 °C, pH 5.0 in [5] of 0.011 s⁻¹. The molecule also returned a haem b reduction rate kobs (interdomain electron transfer) of 5 μM full-length MtCDH S298Q with 25 mM cellobiose, stopped flow at 563 nm, 30 °C, pH 5.0 in [6] of 0.09 s⁻¹. The same molecule displayed a haem b reduction rate kobs (interdomain electron transfer) of 5 μM full-length MtCDH W295A with 25 mM cellobiose, stopped flow at 563 nm, 30 °C, pH 5.0 in assay [7] of 0.86 s⁻¹. This molecule also gave a haem b reduction rate kobs (interdomain electron transfer) of 5 μM full-length MtCDH Y549F with 25 mM cellobiose, stopped flow at 563 nm, 30 °C, pH 5.0 in assay [8] of 0.76 s⁻¹. The molecule also had a haem b reduction rate kobs (interdomain electron transfer) of 5 μM full-length MtCDH Y619Q with 25 mM cellobiose, stopped flow at 563 nm, 30 °C, pH 5.0 in assay [9] of 0.38 s⁻¹. In addition, the haem b reduction rate kobs (flavin-to-haem interdomain electron transfer) of 5 μM full-length MtCDH wild type with 25 mM cellobiose, stopped flow at 563 nm, 30 °C, 50 mM sodium citrate pH 5.0 in assay [10] was found to be 0.76 s⁻¹.

B1: cytochrome domain of Neurospora crassa cellobiose dehydrogenase IIA (separate fragment) (domain or fragment)
chain: QTAPKTFTHPDTGIVFNTWSASDSQTKGGFTVGMALPSNALTTDATEFIGYLECSSAKNGANSGWCGVSLRGAMTNNLLITAWPSDGEVYTNLMFATGYAMPKNYAGDAKITQIASSVNATHFTLVFRCQNCLSWDQDGVTGGISTSNKGAQLGWVQAFPSPGNPTCPTQITLSQHDNGMGQWGAAFDSNIANPSYTAWAAKATKTVTGTCSGPVTTSIAATPVPTGVSFDYIVVGGGAGGIPVADKLSESGKSVLLIEKGFASTGEHGGTLKPEWLNNTSLTRFDVPGLCNQIWKDSDGIACSDTDQMAGCVLGGGTAINAGLWYKPYTKDWDYLFPSGWKGSDIAGATSRALSRIPGTTTPSQDGKRYLQQGFEVLANGLKASGWKEVDSLKDSEQKNRTFSHTSYMYINGERGGPLATYLVSAKKRSNFKLWLNTAVKRVIREGGHITGVEVEAFRNGGYSGIIPVTNTTGRVVLSAGTFGSAKILLRSGIGPKDQLEVVKASADGPTMVSNSSWIDLPVGHNLVDHTNTDTVIQHNNVTFYDFYKAWDNPNTTDMNLYLNGRSGIFAQAAPNIGPLFWEEITGADGIVRQLHWTARVEGSFETPDGYAMTMSQYLGRGATSRGRMTLSPTLNTVVSDLPYLKDPNDKAAVVQGIVNLQKALANVKGLTWAYPSANQTAADFVDKQPVTYQSRRSNHWMGTNKMGTDDGRSGGTAVVDTNTRVYGTDNLYVVDASIFPGVPTTNPTAYIVVAAEHAAAKILAQPANEAVPKWGWCGGPTYTGSQTCQAPYKCEKQNDWYWQCV
For the molecule B1, the haem b re-oxidation rate (kobs) of reduced NcCYT (4 μM) mixed with NcLPMO9F (20 μM), stopped flow at 563 nm, 30 °C, 50 mM sodium citrate pH 5.0 (re-oxidation by oxygen alone 0.0007 s^−1) in [11] was 67.2 s⁻¹.

B2: dehydrogenase domain of Neurospora crassa cellobiose dehydrogenase IIA (separate fragment) (domain or fragment)
chain: QTAPKTFTHPDTGIVFNTWSASDSQTKGGFTVGMALPSNALTTDATEFIGYLECSSAKNGANSGWCGVSLRGAMTNNLLITAWPSDGEVYTNLMFATGYAMPKNYAGDAKITQIASSVNATHFTLVFRCQNCLSWDQDGVTGGISTSNKGAQLGWVQAFPSPGNPTCPTQITLSQHDNGMGQWGAAFDSNIANPSYTAWAAKATKTVTGTCSGPVTTSIAATPVPTGVSFDYIVVGGGAGGIPVADKLSESGKSVLLIEKGFASTGEHGGTLKPEWLNNTSLTRFDVPGLCNQIWKDSDGIACSDTDQMAGCVLGGGTAINAGLWYKPYTKDWDYLFPSGWKGSDIAGATSRALSRIPGTTTPSQDGKRYLQQGFEVLANGLKASGWKEVDSLKDSEQKNRTFSHTSYMYINGERGGPLATYLVSAKKRSNFKLWLNTAVKRVIREGGHITGVEVEAFRNGGYSGIIPVTNTTGRVVLSAGTFGSAKILLRSGIGPKDQLEVVKASADGPTMVSNSSWIDLPVGHNLVDHTNTDTVIQHNNVTFYDFYKAWDNPNTTDMNLYLNGRSGIFAQAAPNIGPLFWEEITGADGIVRQLHWTARVEGSFETPDGYAMTMSQYLGRGATSRGRMTLSPTLNTVVSDLPYLKDPNDKAAVVQGIVNLQKALANVKGLTWAYPSANQTAADFVDKQPVTYQSRRSNHWMGTNKMGTDDGRSGGTAVVDTNTRVYGTDNLYVVDASIFPGVPTTNPTAYIVVAAEHAAAKILAQPANEAVPKWGWCGGPTYTGSQTCQAPYKCEKQNDWYWQCV
For the molecule B2, the re-oxidation rate of the FAD cofactor of NcDH (10 μM) in the presence of 50 μM NcLPMO9F, stopped flow at 450 nm (0.0444 s^–1 without LPMO): unchanged, no electron transfer in assay [12] stood at 0.0442 s⁻¹.
